Reference: patent US10864251B2, “Peptides of syndecan-1 for inhibiting angiogenesis” (Wisconsin Alumni Research Foundation, priority 2006, dated 2020)
Where two headings read alike, the source gives them in different places. Where no end group is shown, it is not given here.

B1: S1ED: recombinant mouse Sdc1 ectodomain (amino acids 18-251), expressed in bacteria as GST fusion or 6×His-tagged protein (protein)
chain: QPALPQIVAVNVPPEDQDGSGDDSDNFSGSGTGALPDTLSRQTPSTWKDVWLLTATPTAPEPTSSNTETAFTSVLPAGEKPEEGEPVLHVEAEPGFTARDKEKEVTTRPRETVQLPITQRASTVRVTTAQAAVTSHPHGGMQPGLHETSAPTAPGQPDHQPPRVEGGGTSVIKEVVEDGTANQLPAGEGSGEQDFTFETSGENTAVAAVEPGLRNQPPVDEGATGASQSLLDRK
modifications: left off: a dimerising Fc or GST
notes: recombinant mouse Sdc1 ectodomain (amino acids 18-251), expressed in bacteria as GST fusion or 6×His-tagged protein

Key:
B82L fibroblasts [1] = assay type: cell-based, mouse; details: 6 h
Procedure: FIGS. 6A-6H—Inhibition of B82L fibroblast and HMEC-1 cell attachment and spreading on VN by synstatin82-130. B82L fibroblasts, which rely on the αvβ5 integrin for attachment to VN, and human dermal microvascular endothelial cells, which rely on both the αvβ3 and αvβ5 integrins for attachment to VN, were plated in the absence of peptide (FIGS. 6A, 6E) or in the presence of 0.1 (FIGS. 6B, 6F), 0.3 (FIGS. 6C, 6G) or 1 μM (FIGS. 6D, 6H) synstatin82-130 for 2 hr and processed as described in FIG. 2.
Cell adhesion and spreading assays were performed with modification to the previous procedures (Lebakken and Rapraeger, 1996. Briefly, human plasma vitronectin or fibronectin at 10-30 μg/ml were applied to nitrocellulose-coated ten well slides (Erie Scientific) and incubated for 1-2 h at 37° C. Slides were blocked with 1.0% heat-denatured bovine serum albumin for a minimum of 30 min at 37° C. Cells were detached from the substratum using 5 mM EDTA in Tris-buffered saline and resuspended in HEPES-buffered culture medium containing 0.1% heat-denatured BSA. Cells were plated at a density of 15,000 cells per well and allowed to attach and spread for 2 h prior to fixation in 4% paraformaldehyde in CMF-PBS. For fluorescence microscopy, fixed cells were permeabilized in 0.2% Triton X-100, labeled with rhodamine-conjugated phalloidin and analyzed using fluorescence microscopy. […]

segments of mouse aorta = assay type: cell-based; details: for block of VEGF-induced outgrowth: 50 ng/ml VEGF, 7 days
Procedure: FIG. 12—SSTN blocks aortic ring angiogenesis. Aortic segments were explanted to collagen gels for 7 days in the presence of 50 ng/ml vascular endothelial cell growth factor (VEGF), or 30 ng/ml FGF-2 in the presence or absence of mS1ED or SSTN. Total outgrowth in quantified as the total length of all microvessels.
To test the activity of SSTN as an anti-angiogenic agent, the inventors turned to the in vitro aortic ring outgrowth assay and the in vivo corneal angiogenesis model. The aortic outgrowth assay allows quantification of microvessel outgrowth from segments of mouse aorta explanted to type I collagen gels. As was found when examining the mouse aortic endothelial cell line in culture, both syndecan-1 and the αvβ3 and αvβ5 integrins appear present even on the resting mouse aorta (FIG. 11A). In addition, microvessels growing out from the aortic explant over a 7 days period in response to FGF stain positively for syndecan-1, with appears co-expressed with the αvβ3 and αvβ5 integrins (FIG. 11B). To extend this finding of syndecan-1 expression in activated endothelium, the inventors also examined two models of mouse breast tumor formation. Tumors derived from wnt-1 overexpression in the mammary gland show a high degree of vascularization, identified as internal networks lined by a thick cell layer than stains intensely for syndecan-1 and for PECAM (CD31), indicative of activated endothelium (FIG. 11C). In fact, syndecan-1 expression in these cells swamps out the positive staining for syndecan-1 seen in the mammary epithelial cells, which are known to be positive for syndecan-1. These same cell layers as positive for αv, β3 and β5 integrin subunits. A similar finding is seen in tumors arising from overexpression of β-catenin (FIG. 11C). Although the vascularization is not as extensive as in the […] tumors, there are clear thickened layers of cells that are PECAM, syndecan-1 and αvβ3/αvβ5 integrin positive in these mammary tumors.
To test the effect of SSTN on microvessel outgrowth, segments of thoracic aorta were explanted to collagen gels in the presence of either 50 ng/ml vascular endothelial cell growth factor (VEGF) or 30 ng/ml FGF-2, and incubated in the presence of either recombinant mS1ED or SSTN. Although some vessel outgrowth is observed in the absence of exogenous angiogenic agents, likely due to VEGF release by supporting cells growing out from the explant, the outgrowth is greatly (≥10-fold) increased by FGF or VEGF (FIG. 12). Addition of recombinant mS1ED blocks VEGF-induced outgrowth by more than 70% at 10 μM, and greater than 95% at 30 μM. FGF induced outgrowth requires slightly higher inhibitory concentrations (approximately 30 μM mS1ED for 70% inhibition), which may trace to a difference in susceptibility of the two integrins, as VEGF signaling is reportedly coupled to αvβ5 integrin activation and FGF signaling is coupled to αvβ3 activation. […] It should be noted that the microvessel outgrowth is accompanied by the outgrowth of support cells, most likely smooth muscle cells and fibroblasts. […] Thus, the effects of SSTN are highly localized to the vascular endothelial cells.

[2] = Active SSTN in blood detected on dot blots; assay type: in vivo; details: mouse
Procedure: Lastly, SSTN was tested in the in vivo corneal angiogenesis assay. Polyhydroxyethylmethylacrylate pellets (0.25 μL) containing 67 ng FGF-2 and sucralfate as a slow release agent were implanted into the avascular mouse cornea. After seven days, fluorescent dextran was injected suborbitally to highlight the vascular system and the mice were sacrificed. […] To supply the inhibitor in a more quantifiable and physiological manner, recombinant mS1ED or SSTN were delivered systemically via Alzet osmotic pumps implanted subcutaneously on the backs of the animals. […] To correlate this with the active concentration in the plasma, the inventors took advantage of rabbit polyclonal antibodies generated against mS1ED, which detect active SSTN on dot blots. […] Using this method to detect active SSTN in the blood collected from animals after 1 week of SSTN treatment, SSTN is shown to be in the blood at 125-150 nM when present at 10 μM in the osmotic pump.

B82L fibroblasts [3] = details: B82L cells; McQuade et al., 2006; read-out: IC50, recognition of VN; cited from earlier work

Molecule	IC50 (B82L fibroblasts [1]) [nM]	IC50 (segments of mouse aorta) [nM]	level at time molar at 168 h ([2]; blood, sc, after 1 week, 10 μM in the osmotic pump, read-out: concentration in the blood) [nM]	clearance rate in the plasma ([2]; suggested from blood level) [h]	concentration for 70% inhibition of FGF induced outgrowth (segments of mouse aorta; 30 ng/ml FGF-2, 7 days)	block of VEGF-induced outgrowth (segments of mouse aorta; 10 μM)	block of VEGF-induced outgrowth (segments of mouse aorta; 30 μM)	outgrowth of support cells (non-endothelial) (segments of mouse aorta; aortic ring explants)	IC50 (B82L fibroblasts [3]) [nM]
SNTETAFTSVLPAGEKPEEGEPVLHVEAEPGFTARDKEKEVTTRPRETV [synstatin82-130]	~100	100	125 to 150	10 to 13					
B1					approximately 30 μM	more than 70%	greater than 95%	unaffected	3000 to 10000
